B1: Cyclic dof factor 1 (Arabidopsis thaliana (Mouse-ear cress)), Q8W1E3 (parent)
chain: MLETKDPAIKLFGMKIPFPTVLEVADEEEEKNQNKTLTDQSEKDKTLKKPTKILPCPRCNSMETKFCYYNNYNVNQPRHFCKACQRYWTSGGTMRSVPIGAGRRKNKNNSPTSHYHHVTISETNGPVLSFSLGDDQKVSSNRFGNQKLVARIENNDERSNNNTSNGLNCFPGVSWPYTWNPAFYPVYPYWSMPVLSSPVSSSPTSTLGKHSRDEDETVKQKQRNGSVLVPKTLRIDDPNEAAKSSIWTTLGIKNEVMFNGFGSKKEVKLSNKEETETSLVLCANPAALSRSINFHEQM

Variants of: B1
Conditions: with ado3_arath ADO3, Q9C9W9
Sequence of ado3_arath ADO3, Q9C9W9 (Q9C9W9 whole entry): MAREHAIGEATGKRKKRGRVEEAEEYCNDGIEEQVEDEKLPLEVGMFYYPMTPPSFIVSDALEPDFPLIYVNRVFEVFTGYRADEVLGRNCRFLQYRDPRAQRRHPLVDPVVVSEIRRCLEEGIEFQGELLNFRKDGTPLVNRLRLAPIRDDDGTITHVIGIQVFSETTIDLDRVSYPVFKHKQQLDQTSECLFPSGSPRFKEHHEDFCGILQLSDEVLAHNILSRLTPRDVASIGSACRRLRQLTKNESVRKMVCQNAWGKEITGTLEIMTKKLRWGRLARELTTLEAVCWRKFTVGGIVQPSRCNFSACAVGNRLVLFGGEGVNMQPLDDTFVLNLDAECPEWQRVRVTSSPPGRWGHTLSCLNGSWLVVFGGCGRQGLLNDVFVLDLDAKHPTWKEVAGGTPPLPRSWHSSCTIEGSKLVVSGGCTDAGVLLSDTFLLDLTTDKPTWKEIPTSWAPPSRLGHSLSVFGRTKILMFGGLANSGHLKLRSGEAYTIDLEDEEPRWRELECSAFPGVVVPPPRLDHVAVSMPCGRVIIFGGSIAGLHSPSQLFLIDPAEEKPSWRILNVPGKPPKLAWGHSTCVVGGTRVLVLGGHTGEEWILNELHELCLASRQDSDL

Q: K253A was tested. Which “effect of a mutation on the interaction” value did it give?
A: decreasing interaction
